Experimental data taken from patent publication US20120253009A1 (Amgen, published 2012).

B1: Fc-Loop (Sym) (SEQ ID NO: 35) (Fc fusion)
chain: MDKTHTCPPCPAPELLGGPSVFLFPPKPKDTLMISRTPEVTCVVVDVSHEDPEVKFNWYVDGVEVHNAKTKPREEQYNSTYRVVSVLTVLHQDWLNGKEYKCKVSNKALPAPIEKTISKAKGQPREPQVYTLPPSRDELGGQGCSSGGPTLREWQQCRRMQHSGGTKNQVSLTCLVKGFYPSDIAVEWESNGQPENNYKTTPPVLDSDGSFFLYSKLTVDKSRWQQGNVFSCSVMHEALHNHYTQKSLSLSPGK
B2: Fc-Loop (Sym) (SEQ ID NO: 6) (Fc fusion)
chain: MDKTHTCPPCPAPELLGGPSVFLFPPKPKDTLMISRTPEVTCVVVDVSHEDPEVKFNWYVDGVEVHNAKTKPREEQYNSTYRVVSVLTVLHQDWLNGKEYKCKVSNKALPAPIEKTISKAKGQPREPQVYTLPPSRDELGGQGCSSGGPTLREWQQCRRAQHSGGTKNQVSLTCLVKGFYPSDIAVEWESNGQPENNYKTTPPVLDSDGSFFLYSKLTVDKSRWQQGNVFSCSVMHEALHNHYTQKSLSLSPGK
B3: Fc-Loop (Sym) (SEQ ID NO: 5) (Fc fusion)
chain: MDKTHTCPPCPAPELLGGPSVFLFPPKPKDTLMISRTPEVTCVVVDVSHEDPEVKFNWYVDGVEVHNAKTKPREEQYNSTYRVVSVLTVLHQDWLNGKEYKCKVSNKALPAPIEKTISKAKGQPREPQVYTLPPSRDELGGQGCSSGGPTLREWQQCVRMQHSGGTKNQVSLTCLVKGFYPSDIAVEWESNGQPENNYKTTPPVLDSDGSFFLYSKLTVDKSRWQQGNVFSCSVMHEALHNHYTQKSLSLSPGK
B4: Fc-Loop (Asym) (SEQ ID NO: 35) (Fc fusion)
chain: MDKTHTCPPCPAPELLGGPSVFLFPPKPKDTLMISRTPEVTCVVVDVSHEDPEVKFNWYVDGVEVHNAKTKPREEQYNSTYRVVSVLTVLHQDWLNGKEYKCKVSNKALPAPIEKTISKAKGQPREPQVYTLPPSRDELGGGGQGCSSGGPTLREWQQCRRMQHSGGTKNQVSLTCLVKGFYPSDIAVEWESNGQPENNYKTTPPVLDSDGSFFLYSKLTVDKSRWQQGNVFSCSVMHEALHNHYTQKSLSLSPGK
B5: Fc-Loop (Asym) (SEQ ID NO: 5) (Fc fusion)
chain: MDKTHTCPPCPAPELLGGPSVFLFPPKPKDTLMISRTPEVTCVVVDVSHEDPEVKFNWYVDGVEVHNAKTKPREEQYNSTYRVVSVLTVLHQDWLNGKEYKCKVSNKALPAPIEKTISKAKGQPREPQVYTLPPSRDELGGGGQGCSSGGPTLREWQQCVRMQHSGGTKNQVSLTCLVKGFYPSDIAVEWESNGQPENNYKTTPPVLDSDGSFFLYSKLTVDKSRWQQGNVFSCSVMHEALHNHYTQKSLSLSPGK

The binders below were run against T1, human mpl receptor (human, UniProt P40238 26-635) (assay: cell-based or functional assay).
T1 sequence (looked up): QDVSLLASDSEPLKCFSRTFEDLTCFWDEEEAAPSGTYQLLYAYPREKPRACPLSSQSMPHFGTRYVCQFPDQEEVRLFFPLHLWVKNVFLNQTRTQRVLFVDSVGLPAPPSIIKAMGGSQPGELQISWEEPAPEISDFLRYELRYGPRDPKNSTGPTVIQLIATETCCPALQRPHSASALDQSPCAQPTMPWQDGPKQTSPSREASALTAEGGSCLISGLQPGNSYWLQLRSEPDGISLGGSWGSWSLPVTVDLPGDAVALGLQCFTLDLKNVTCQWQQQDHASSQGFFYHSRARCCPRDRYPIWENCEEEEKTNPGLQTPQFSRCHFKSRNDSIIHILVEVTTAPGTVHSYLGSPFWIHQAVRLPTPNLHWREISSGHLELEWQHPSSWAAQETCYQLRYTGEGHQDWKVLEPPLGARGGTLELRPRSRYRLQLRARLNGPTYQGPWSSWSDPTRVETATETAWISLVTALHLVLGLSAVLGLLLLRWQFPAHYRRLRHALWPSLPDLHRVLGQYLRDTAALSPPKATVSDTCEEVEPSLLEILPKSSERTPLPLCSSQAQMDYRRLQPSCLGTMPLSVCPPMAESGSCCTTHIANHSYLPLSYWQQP

B1 and B2 are within 1.5-fold of each other in “EC50 on 32Dcl23/Mpl” value: 15 pM for the first, 12 pM for the second.

B3 and B4 are within 1.5-fold of each other in “EC50 on 32Dcl23/Mpl” value: 10 pM for the first, 13 pM for the second.

B5 was tested, and the “EC50 on 32Dcl23/Mpl” value was 6 pM.
